Reference: CN114230673A (dated 2022)

Key:
Test in all cases: ELISA, biotinylated recombinant protein on streptavidin plate, HRP anti-His detection
[1] = target: T1, 生物素标记重组人BCMA (rhBCMA) (human, UniProt Q02223 1-54, biotin label (site not stated))
T1 construct: Bought protein
T1 sequence (looked up): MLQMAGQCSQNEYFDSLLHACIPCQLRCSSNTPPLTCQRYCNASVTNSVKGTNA

[2] = target: T2, 生物素标记重组人CD40 (rhCD40) (human, UniProt P25942 21-193, biotin label (site not stated))
T2 construct: Bought protein

[3] = target: T3, 生物素标记重组人CD27 (rhCD27) (human, UniProt P26842 21-192, limits assumed, biotin label (site not stated))
T3 construct: Bought protein
T3 sequence (looked up): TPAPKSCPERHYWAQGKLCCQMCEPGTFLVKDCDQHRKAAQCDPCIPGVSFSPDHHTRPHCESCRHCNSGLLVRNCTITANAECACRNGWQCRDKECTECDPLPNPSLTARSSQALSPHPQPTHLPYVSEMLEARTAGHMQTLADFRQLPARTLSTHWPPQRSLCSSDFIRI

T2 sequence (P25942 21-193 limits assumed): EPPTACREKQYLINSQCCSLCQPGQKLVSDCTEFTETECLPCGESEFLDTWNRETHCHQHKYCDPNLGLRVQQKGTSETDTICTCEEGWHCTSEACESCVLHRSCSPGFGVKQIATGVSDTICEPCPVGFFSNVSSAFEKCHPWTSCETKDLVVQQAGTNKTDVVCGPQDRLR

binding result [1]: no binding
binding result [2]: no binding
binding result [3]: no binding
B1: anti-CD19 scFv (scFv)
scFv: DIQMTQTTSSLSASLGDRVTISCRASQDISKYLNWYQQKPDGTVKLLIYHTSRLHSGVPSRFSGSGSGTDYSLTISNLEQEDIATYFCQQGNTLPYTFGGGTKLEITGGGGSGGGGSGGGGSEVKLQESGPGLVAPSQSLSVTCTVSGVSLPDYGVSWIRQPPRKGLEWLGVIWGSETTYYNSALKSRLTIIKDNSKSQVFLKMNSLQTDDTAIYYCAKHYYYGGSYAMDYWGQGTSVTVSS
notes: Soluble scFv used in the ELISA and flow cytometry; also called CD19抗体; 小鼠抗人anti CD19-scFv抗体; not shown: His tag implied by the anti-His detection antibody
